From publication PMC7659722 (The Journal of Cell Biology, 2020)

Target: the molecule itself
Assay: SDS-PAGE

B1: recombinant human FIT2 WT, 3FLAG-tagged (enzyme, UniProt Q8N6M3 1-262, looked up)
chain: MEHLERCEWLLRGTLVRAAVRRYLPWALVASMLAGSLLKELSPLPESYLSNKRNVLNVYFVKVAWAWTFCLLLPFIALTNYHLTGKAGLVLRRLSTLLVGTAIWYICTSIFSNIEHYTGSCYQSPALEGVRKEHQSKQQCHQEGGFWHGFDISGHSFLLTFCALMIVEEMSVLHEVKTDRSHCLHTAITTLVVALGILTFIWVLMFLCTAVYFHNLSQKVFGTLFGLLSWYGTYGFWYPKAFSPGLPPQSCSLNLKQDSYKK
B1: binds.
